# Biological target: T1, full-length untagged human GPNMB expressed on cells (human, UniProt Q14956 23-572)
# T1 construct: also used here for GPNMB on human monocyte-derived macrophages in the functional assays; also called huGPNMB; Freestyle293-huGPNMB+
# T1 sequence: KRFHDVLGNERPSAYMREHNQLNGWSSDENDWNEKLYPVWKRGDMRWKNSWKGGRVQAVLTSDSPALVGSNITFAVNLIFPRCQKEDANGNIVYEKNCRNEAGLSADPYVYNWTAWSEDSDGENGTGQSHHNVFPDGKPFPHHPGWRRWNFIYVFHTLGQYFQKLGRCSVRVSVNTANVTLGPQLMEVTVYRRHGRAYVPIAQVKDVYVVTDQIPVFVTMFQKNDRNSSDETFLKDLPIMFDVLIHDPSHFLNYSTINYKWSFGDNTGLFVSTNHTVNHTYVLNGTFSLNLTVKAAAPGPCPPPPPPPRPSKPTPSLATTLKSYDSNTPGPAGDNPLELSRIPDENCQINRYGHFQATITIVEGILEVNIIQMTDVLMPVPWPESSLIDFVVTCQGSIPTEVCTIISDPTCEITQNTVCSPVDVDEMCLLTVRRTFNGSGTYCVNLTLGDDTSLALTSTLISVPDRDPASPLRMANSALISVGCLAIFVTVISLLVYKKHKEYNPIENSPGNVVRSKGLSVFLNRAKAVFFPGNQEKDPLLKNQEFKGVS
# Assay: FACS, FS293-huGPNMB+ cells; single-point FACS staining of Freestyle293-huGPNMB+ cells; weak signal, 1.5-fold over background
binder,measurement,value
"anti-GPNMB antibody GPN-43 (antibody, human IgG1, V domains shown, chimeric) VH: EVQLQQSGPELVKPGASVKISCKASGYTFTDYYMNWVRQSHGKSLEWIGDINPYHGGSTYNQKIKVKATLTVDKSSSTAYMELRSLTSEDSAVYYCARNWPYFDYWGQGTTLTVSS VL: DIQMTQSPASLSASVGETVTITCRASENIYSFLVWYQQKQGKSPQLLVYNAKTLAEGVPSRFSGSGSGTQFSLKISSLQPEDFGSYYCQHHFGTPPYTFGGGTKLEIK",MFI fold over background,1.5 fold
